Assay results reported in patent US20240182526A1 (UNIVERSITY OF SOUTHERN CALIFORNIA, published 2024).

Target: T1, SRC, endogenous in mouse splenocytes (mouse, UniProt P05480 2-535)
T1 construct: Detected as pSRC (pY416-SRC antibody) in gp130 co-immunoprecipitates; also called pSRC; c-SRC
Experiment: co-immunoprecipitation, F814 mouse splenocytes with or without OSM

B1: gp130 F814 variant of the CRISPR/Cas9 F814 mouse (SEQ ID NO:27 with F812 substitution) (receptor)
chain: QLLEPCGYIYPEFPVVQRGSNFTAICVLKEACLQHYYVNASYIVWKTNHAAVPREQVTVINRTTSSVTFTDVVLPSVQLTCNILSFGQIEQNVYGVTMLSGFPPDKPTNLTCIVNEGKNMLCQWDPGRETYLETNYTLKSEWATEKFPDCQSKHGTSCMVSYMPTYYVNIEVWVEAENALGKVSSESINFDPVDKVKPTPPYNLSVTNSEELSSILKLSWVSSGLGGLLDLKSDIQYRTKDASTWIQVPLEDTMSPRTSFTVQDLKPFTEYVFRIRSIKDSGKGYWSDWSEEASGTTYEDRPSRPPSFWYKTNPSHGQEYRSVRLIWKALPLSEANGKILDYEVILTQSKSVSQTYTVTGTELTVNLTNDRYVASLAARNKVGKSAAAVLTIPSPHVTAAYSVVNLKAFPKDNLLWVEWTPPPKPVSKYILEWCVLSENAPCVEDWQQEDATVNRTHLRGRLLESKCYQITVTPVFATGPGGSESLKAYLKQAAPARGPTVRTKKVGKNEAVLAWDQIPVDDQNGFIRNYSISYRTSVGKEMVVHVDSSHTEYTLSSLSSDTLYMVRMAAYTDEGGKDGPEFTFTTPKFAQGEIEAIVVPVCLAFLLTTLLGVLFCFNKRDLIKKHIWPNVPDPSKSHIAQWSPHTPPRHNFNSKDQMYSDGNFTDVSVVEIEANNKKPCPDDLKSVDLFKKEKVSTEGHSSGIGGSSCMSSSRPSISSNEENESAQSTASTVQYSTVVHSGYRHQVPSVQVFSRSESTQPLLDSEERPEDLQLVDSVDGGDEILPRQPFFKQNCSQPEACPEISHFERSNQVLSGNEEDFVRLKQQQVSDHISQPYGSEQRRLFQEGSTADALGTGADGQMERFESVGMETTIDEEIPKSYLPQTVRQGGYMPQ
notes: Endogenous protein in lysates of F814 mouse splenocytes; also called Y814 mutant; gp130 Y814-deficient
  binding result: no binding
